Test results reported in US10201586B2 (dated 2019).
*1 amine or outer side, *2 acyl side, *3 side chain or, on linkers, in order; H or OH if unused. Where a SMILES comes first, the peptide text is derived from it. Bridges are numbered along the chain shown (N, C = ends). [ ]: non-standard residue; d: D form. The star is where a group is joined. ξ: configuration not given here. Succinimide(1-Et,3-yl) = CCN1C(=O)CC(*)C1=O; Bta = N[C@@H](Cc1csc2ccccc12)C(=O)O; Cysteamide = C(CS[*:3])N[*:1]; Tle = CC(C)(C)[C@H](N)C(=O)O; β3hL = CC(C)C[C@H](N)CC(=O)O; β3hK = NCCCC[C@H](N)CC(=O)O; hCys = N[C@@H](CCS)C(=O)O; Nle = CCCC[C@H](N)C(=O)O; ξβ3hV = CC(C)C(N)CC(=O)O; Aib = CC(C)(N)C(=O)O

Experiments:
TFPI [1] = biological target: T1, TFPI (Homo sapiens, UniProt P10646); experiment: IC50 [nm]
Target sequence in this assay (P10646 29-304 limits assumed): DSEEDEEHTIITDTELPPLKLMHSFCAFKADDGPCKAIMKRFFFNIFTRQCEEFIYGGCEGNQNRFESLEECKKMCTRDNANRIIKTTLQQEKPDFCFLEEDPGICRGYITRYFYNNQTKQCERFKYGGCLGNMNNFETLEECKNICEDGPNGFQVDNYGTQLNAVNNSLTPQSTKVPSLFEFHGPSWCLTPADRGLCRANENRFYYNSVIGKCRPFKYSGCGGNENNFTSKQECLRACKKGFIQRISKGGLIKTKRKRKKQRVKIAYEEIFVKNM

TFPI [2] = biological target: T1, TFPI; experiment: IC50 Mean (nM]
Target sequence in this assay (P10646 29-304 limits assumed): as above

[3] = plasma stability in human plasma; format: in vitro ADME; settings: for remaining at 24 h: 24 hour incubation in human plasma, quantitative ELISA
[4] = biological target: Tissue Factor Pathway Inhibitor (TFPI) (Homo sapiens, UniProt P10646); experiment: IC50 ELISA | IC50 [nM]
Tissue Factor Pathway Inhibitor (TFPI), sequence (P10646 29-304 limits assumed): as above

TFPI [5] = biological target: T1, TFPI; experiment: % Inhibition @ 2.5µM
TFPI [6] = biological target: T1, TFPI; experiment: Extrinsic Tenase Inhibition assay | % Inhibition @ 2.5µM

Compound	% Inhibition @ […] (TFPI [5])	Extrinsic Tenase Inhibition assay | % Inhibition @ […] (TFPI [6])	also measured
CCCC[C@H](NC(=O)CNC(=O)[C@H](CO)NC(=O)[C@H](Cc1ccccc1)NC(=O)[C@H](Cc1c[nH]c2ccccc12)NC(=O)[C@H](CCCCN)NC(C)=O)C(=O)N[C@@H](CCCNC(=N)N)C(=O)N[C@@H](CC(=O)O)C(=O)N[C@@H](CCCC)C(=O)N[C@@H](CCCCN)C(=O)NCC(=O)N[C@H](C(=O)N[C@@H](CCCC)C(=O)N[C@@H](CO)C(=O)N[C@@H](CO)C(=O)N[C@H](C(=O)N[C@@H](Cc1c[nH]c2ccccc12)C(=O)N[C@H](C(=O)N[C@@H](CCCCN)C(=O)N[C@@H](Cc1ccccc1)C(N)=O)C(C)C)C(C)C)[C@@H](C)O [JBT0414 | 1205, Ac-KWFSG-Nle-RD-Nle-KGT-Nle-SSVWVKF-NH2] (Ac-KWFSG[Nle]RD[Nle]KGT[Nle]SSVWVKF-NH2)			IC50 (TFPI [1]): 5690 nM
CC(=O)N[C@@H](Cc1ccccc1)C(=O)N[C@@H](CCC(N)=O)C(=O)N[C@@H](CO)C(=O)N[C@@H](CCCCN)C(=O)NCC(=O)N[C@@H](CC(N)=O)C(=O)NC(CC(=O)N[C@@H](Cc1ccccc1)C(=O)N[C@H](C(=O)N[C@@H](Cc1ccccc1)C(=O)NCC(=O)N[C@@H](Cc1ccc(O)cc1)C(=O)N[C@@H](Cc1ccccc1)C(=O)N[C@@H](CCC(=O)O)C(=O)N[C@@H](CCCNC(=N)N)C(=O)N[C@@H](CC(C)C)C(=O)N[C@@H](CCCNC(=N)N)C(=O)N[C@@H](C)C(=O)N[C@@H](CCCCN)C(=O)N[C@@H](CC(C)C)C(N)=O)C(C)C)C(C)C (stereo partly drawn) [JBT0521 | 756] (Ac-FQSKGN[ξβ3hV]FVFGYFERLRAKL-NH2)			IC50 (TFPI [2]): > 5000 nM
CC(=O)N[C@@H](Cc1ccccc1)C(=O)N[C@@H](CCC(N)=O)C(=O)N[C@@H](CO)C(=O)N[C@@H](CCCCN)C(=O)NCC(=O)N[C@@H](CC(N)=O)C(=O)N[C@H](C(=O)N[C@@H](Cc1ccccc1)C(=O)NC(CC(=O)N[C@@H](Cc1ccccc1)C(=O)NCC(=O)N[C@@H](Cc1ccc(O)cc1)C(=O)N[C@@H](Cc1ccccc1)C(=O)N[C@@H](CCC(=O)O)C(=O)N[C@@H](CCCNC(=N)N)C(=O)N[C@@H](CC(C)C)C(=O)N[C@@H](CCCNC(=N)N)C(=O)N[C@@H](C)C(=O)N[C@@H](CCCCN)C(=O)N[C@@H](CC(C)C)C(N)=O)C(C)C)C(C)C (stereo partly drawn) [JBT0523 | 757] (Ac-FQSKGNVF[ξβ3hV]FGYFERLRAKL-NH2)			IC50 (TFPI [2]): > 5000 nM
CC(=O)N[C@@H](Cc1ccccc1)C(=O)N[C@@H](CCC(N)=O)C(=O)N[C@@H](CO)C(=O)N[C@@H](CCCCN)C(=O)NCC(=O)N[C@@H](CC(N)=O)C(=O)N[C@H](C(=O)N[C@@H](Cc1ccccc1)C(=O)N[C@H](C(=O)N[C@@H](Cc1ccccc1)C(=O)NCC(=O)N[C@@H](Cc1ccc(O)cc1)C(=O)N[C@@H](Cc1ccccc1)C(=O)N[C@@H](CCC(=O)O)C(=O)N[C@@H](CCCNC(=N)N)C(=O)N[C@@H](CC(C)C)C(=O)N[C@@H](CCCNC(=N)N)C(=O)N[C@@H](C)C(=O)N[C@@H](CCCCN)CC(=O)N[C@@H](CC(C)C)C(N)=O)C(C)C)C(C)C [JBT0533 | 424] (Ac-FQSKGNVFVFGYFERLRA[β3hK]L-NH2)			IC50 (TFPI [2]): 756 nM
CC(=O)N[C@@H](Cc1ccccc1)C(=O)N[C@@H](CCC(N)=O)C(=O)N[C@@H](CO)C(=O)N[C@@H](CCCCN)C(=O)NCC(=O)N[C@@H](CC(N)=O)C(=O)N[C@H](C(=O)N[C@@H](Cc1ccccc1)C(=O)N[C@H](C(=O)N[C@@H](Cc1ccccc1)C(=O)NCC(=O)N[C@@H](Cc1ccc(O)cc1)C(=O)N[C@@H](Cc1ccccc1)C(=O)N[C@@H](CCC(=O)O)C(=O)N[C@@H](CCCNC(=N)N)C(=O)N[C@@H](CC(C)C)C(=O)N[C@@H](CCCNC(=N)N)C(=O)N[C@@H](C)C(=O)N[C@@H](CCCCN)C(=O)N[C@H](CC(N)=O)CC(C)C)C(C)C)C(C)C [JBT0534 | 204] (Ac-FQSKGNVFVFGYFERLRAK[β3hL]-NH2)			IC50 (TFPI [2]): 84 nM
CC(=O)N[C@@H](Cc1ccccc1)C(=O)N[C@@H](CCC(N)=O)C(=O)N[C@@H](CO)C(=O)N[C@@H](CCCCN)C(=O)N(C)CC(=O)N[C@@H](CC(N)=O)C(=O)N[C@H](C(=O)N[C@@H](Cc1ccccc1)C(=O)N[C@H](C(=O)N[C@@H](CC(=O)O)C(=O)NCC(=O)N[C@@H](Cc1ccc(O)cc1)C(=O)N[C@@H](Cc1ccccc1)C(=O)N[C@@H](CCC(=O)O)C(=O)N[C@@H](CCCNC(=N)N)C(=O)N[C@@H](CC(C)C)C(=O)NC(C)(C)C(=O)N[C@@H](C)C(=O)N[C@@H](CCCCN)C(=O)N[C@@H](CC(C)C)C(N)=O)C(C)C)C(C)C [JBT1584]			Plasma Stability (half life in minutes) human ([3]; human plasma): >2 h
CC(=O)N[C@@H](Cc1ccccc1)C(=O)N[C@@H](CCC(N)=O)C(=O)N[C@@H](CO)C(=O)N[C@@H](CCCCN)C(=O)N1CCC[C@@H]1C(=O)N[C@@H](CC(N)=O)C(=O)N[C@H](C(=O)N[C@@H](Cc1cnc[nH]1)C(=O)N[C@H](C(=O)N[C@@H](CC(=O)O)C(=O)NCC(=O)N[C@@H](Cc1ccc(O)cc1)C(=O)N[C@@H](Cc1ccccc1)C(=O)N[C@@H](CCC(=O)O)C(=O)N[C@@H](CCCNC(=N)N)C(=O)N[C@@H](CC(C)C)C(=O)NC(C)(C)C(=O)N[C@@H](C)C(=O)N[C@@H](CCCCN)C(=O)N[C@@H](CC(C)C)C(N)=O)C(C)(C)C)C(C)C [JBT2431] (Ac-FQSK[dP]NVH[Tle]DGYFERL[Aib]AKL-NH2)			remaining at 24 h [3]: 82%
CC(=O)N[C@@H](Cc1ccccc1)C(=O)N[C@@H](CCC(N)=O)C(=O)N[C@@H](CO)C(=O)N[C@@H](CCCCN)C(=O)N1CCC[C@@H]1C(=O)N[C@@H](CC(N)=O)C(=O)N[C@H](C(=O)N[C@@H](Cc1cnc[nH]1)C(=O)N[C@H](C(=O)N1CCC[C@H]1C(=O)NCC(=O)N[C@@H](Cc1ccc(O)cc1)C(=O)N[C@@H](Cc1ccccc1)C(=O)N[C@@H](CCC(=O)O)C(=O)N[C@@H](CCCNC(=N)N)C(=O)N[C@@H](CC(C)C)C(=O)NC(C)(C)C(=O)N[C@@H](C)C(=O)N[C@@H](CCCCN)C(=O)N[C@@H](CC(C)C)C(N)=O)C(C)C)C(C)C [JBT2432]			remaining at 24 h [3]: 76%
CCN1C(=O)CC(SC[C@H](NC(=O)[C@H]2CCCN2C(=O)[C@H](CCCCN)NC(=O)[C@H](CO)NC(=O)[C@H](CCC(N)=O)NC(=O)[C@H](Cc2ccccc2)NC(C)=O)C(=O)N[C@H](C(=O)N[C@@H](Cc2c[nH]cn2)C(=O)N[C@H](C(=O)N[C@@H](CC(=O)O)C(=O)N[C@H](C)C(=O)N[C@@H](Cc2ccc(O)cc2)C(=O)N[C@@H](Cc2csc3ccccc23)C(=O)N[C@@H](CCC(=O)O)C(=O)N[C@@H](CCCNC(=N)N)C(=O)N[C@@H](CC(C)C)C(=O)NC(C)(C)C(=O)N[C@@H](C)C(=O)N[C@@H](CCCCN)C(=O)N[C@@H](CC(C)C)C(N)=O)C(C)(C)C)C(C)C)C1=O (some centres unmarked) [JBT2502 | 4217, Ac-FQSKp-C(NEM)-VH-Tle-DaY-Bta-ERL-Aib-AKL-NH2] (Ac-FQSK[dP]C(Succinimide(1-Et,3-yl))VH[Tle]D[dA]Y[Bta]ERL[Aib]AKL-NH2)			IC50 [4]: 4.1 nM
CC(=O)N[C@@H](Cc1ccccc1)C(=O)N[C@@H](CCC(N)=O)C(=O)N[C@@H](CO)C(=O)N[C@@H](CCCCN)C(=O)N1CCC[C@@H]1C(=O)N[C@@H](CC(N)=O)C(=O)N[C@H](C(=O)N[C@@H](Cc1c[nH]cn1)C(=O)N[C@H](C(=O)N1CCC[C@H]1C(=O)N[C@H](C)C(=O)N[C@@H](Cc1ccc(O)cc1)C(=O)N[C@@H](Cc1csc2ccccc12)C(=O)N[C@@H](CCC(=O)O)C(=O)N[C@@H](CCCNC(=N)N)C(=O)N[C@@H](CC(C)C)C(=O)NC(C)(C)C(=O)N[C@@H]1CSSCCNC(=O)[C@H](CC(C)C)NC(=O)[C@H](CCCCN)NC1=O)C(C)C)C(C)C [JBT2517 | 4232, Ac-FQSKpNVHVPaY-Bta-ERL-Aib-cKL-Cea-] (Ac-FQSK[dP]NVHVP[dA]Y[Bta]ERL[Aib][dC]KL-Cysteamide; disulfide 18-C)			IC50 [4]: 269 nM
CC(=O)N[C@@H](Cc1ccccc1)C(=O)N[C@@H](CCC(N)=O)C(=O)N[C@@H](CO)C(=O)N[C@@H](CCCCN)C(=O)N1CCC[C@@H]1C(=O)N[C@@H](CC(N)=O)C(=O)N[C@H](C(=O)N[C@@H](Cc1c[nH]cn1)C(=O)N[C@H](C(=O)N1CCC[C@H]1C(=O)N[C@@H]1CSSCC[C@@H](C(=O)N[C@@H](CCCNC(=N)N)C(=O)N[C@@H](CC(C)C)C(=O)NC(C)(C)C(=O)N[C@@H](C)C(=O)N[C@@H](CCCCN)C(=O)N[C@@H](CC(C)C)C(N)=O)NC(=O)[C@H](Cc2csc3ccccc23)NC(=O)[C@H](Cc2ccc(O)cc2)NC1=O)C(C)C)C(C)C [JBT2518 | 4233, Ac-FQSKpNVHVPcY-Bta--Hcy-RL-Aib-AKL-NH2] (Ac-FQSK[dP]NVHVP[dC]Y[Bta][hCys]RL[Aib]AKL-NH2; disulfide 11-14)			IC50 [4]: 10.8 nM
Ac-SGYASFPLAVQLHVAKRSKEMALARLYYKTS-NH2 (SEQ ID NO: 2008) [JBT0674]	10%	5%	
Ac-SGYASFPLAVQLHVSARSKEMALARLYYKTS-NH2 (SEQ ID NO: 2136) [JBT0675]	0%	7%	
Ac-SGYASFPLAVQLHVSKASKEMALARLYYKTS-NH2 (SEQ ID NO: 2137) [JBT0676]	0%	1%	
Ac-SGYASFPLAVQLHVSKRAKEMALARLYYKTS-NH2 (SEQ ID NO: 2009) [JBT0677]	4%	2%	
Ac-SGYASFPLAVQLHVSKRSKEMALARAYYKTS-NH2 (SEQ ID NO: 2021) [JBT0685]	4%	1%	
Ac-SGYASFPLAVQLHVSKRSKEMALARLAYKTS-NH2 (SEQ ID NO: 2140) [JBT0686]	3%	1%	
